# In CN114933651A (dated 2022):
# B1: R14纳米抗体 (alpaca-derived nanobody R14, with C-terminal hexa-His tag) (VHH)
# VHH: QVQLQESGGGLVQPGGSLRLSCAVSGFTLDYYAIGWFRQAPGKEREGVSCISSSDGSTSYADSVKGRFTISRDNAKNTVYLQMNSLKPEDTALYYCAATPATYYSGRYYYQCPAGGMDYWGQGTQVTVSS
# Target: SARS-CoV-2RBD-hFc蛋白 (SARS-CoV-2; human)
binder,measurement,value
B1,Kd,< 0.1 nM
